From paper PMC8892516, “Intragenic suppressors unravel the role of the SCREAM ACT-like domain for bHLH partner selectivity in stomatal development” (Proceedings of the National Academy of Sciences of the …, 2022)

B1: MUTE (1-202) (natural protein, Arabidopsis thaliana, UniProt Q9M8K6 1-202, looked up)
chain: MSHIAVERNRRRQMNEHLKSLRSLTPCFYIKRGDQASIIGGVIEFIKELQQLVQVLESKKRRKTLNRPSFPYDHQTIEPSSLGAATTRVPFSRIENVMTTSTFKEVGACCNSPHANVEAKISGSNVVLRVVSRRIVGQLVKIISVLEKLSFQVLHLNISSMEETVLYFFVVKIGLECHLSLEELTLEVQKSFVSDEVIVSTN
notes: MUTE, Arabidopsis thaliana, residues 1-202; MUTE (1-202) was made both as a GST fusion (pGEX-4T-1, thrombin-cleavable) and with an N-terminal His tag (pET28a); also called MUTE-HIS; MUTE-histag; source: E. coli BL21, purified (Ni-NTA or glutathione resin, Superdex-200)
B2: SPCH (ΔNSPCH, 98-364) (domain or fragment, Arabidopsis thaliana, UniProt Q700C7 98-364, looked up)
chain: GQQKMSHVTVERNRRKQMNEHLTVLRSLMPCFYVKRGDQASIIGGVVEYISELQQVLQSLEAKKQRKTYAEVLSPRVVPSPRPSPPVLSPRKPPLSPRINHHQIHHHLLLPPISPRTPQPTSPYRAIPPQLPLIPQPPLRSYSSLASCSSLGDPPPYSPASSSSSPSVSSNHESSVINELVANSKSALADVEVKFSGANVLLKTVSHKIPGQVMKIIAALEDLALEILQVNINTVDETMLNSFTIKIGIECQLSAEELAQQIQQTFC
notes: the only recombinant SPCH with bHLH domain that the methods list is ΔNSPCH (98-364); source: E. coli BL21, purified (glutathione resin, thrombin, Superdex-200); not shown: GST, N-terminal, cleaved
B3: FAMA (ΔNFAMA) (domain or fragment)
chain: ESQRMTHIAVERNRRKQMNEHLRVLRSLMPGSYVQRGDQASIIGGAIEFVRELEQLLQCLESQKRRRILGETGRDMTTTTTSSSSPITTVANQAQPLIITGNVTELEGGGGLREETAENKSCLADVEVKLLGFDAMIKILSRRRPGQLIKTIAALEDLHLSILHTNITTMEQTVLYSFNVKITSETRFTAEDIASSIQQIFSFIHANTNISGSSNLGNIVFT
modifications: Limits not printed. Start set by analogy with the printed ΔNSPCH 98-364 (one residue before the annotated bHLH). Runs to the native C-terminus. Tag or fusion carrier omitted.
B4: SCRMΔC (1-404), GST removed (domain or fragment, Arabidopsis thaliana, UniProt Q9LSE2 1-404, looked up)
chain: MGLDGNNGGGVWLNGGGGEREENEEGSWGRNQEDGSSQFKPMLEGDWFSSNQPHPQDLQMLQNQPDFRYFGGFPFNPNDNLLLQHSIDSSSSCSPSQAFSLDPSQQNQFLSTNNNKGCLLNVPSSANPFDNAFEFGSESGFLNQIHAPISMGFGSLTQLGNRDLSSVPDFLSARSLLAPESNNNNTMLCGGFTAPLELEGFGSPANGGFVGNRAKVLKPLEVLASSGAQPTLFQKRAAMRQSSGSKMGNSESSGMRRFSDDGDMDETGIEVSGLNYESDEINESGKAAESVQIGGGGKGKKKGMPAKNLMAERRRRKKLNDRLYMLRSVVPKISKMDRASILGDAIDYLKELLQRINDLHNELESTPPGSLPPTSSSFHPLTPTPQTLSCRVKEELCPSSLPSP
notes: SCREAM (SCRM, ICE1), Arabidopsis thaliana, At3G26744, residues 1-404 (lacks the C-terminal ACTL domain); Used for ITC; the methods tell thrombin cleavage of the GST-fused proteins in general, not for ITC by name; also called SCRM1ΔC; source: E. coli BL21, purified (glutathione resin, thrombin, Superdex-200); not shown: GST, N-terminal, cleaved

How the values were obtained:
GST-fused SCRM (1-494) [1] = target: T1, GST-fused SCRM (1-494) (Arabidopsis thaliana, UniProt Q9LSE2 1-494); assay: BLI; as a1, samples incubated 30 min with a 1:4 molar ratio of the synthetic E-box repeat fragment; analyte 200-3.125 nM or 1000-25 nM; details: both partners purified
T1 construct: SCREAM (SCRM, also known as ICE1), Arabidopsis thaliana, At3G26744, residues 1-494; pGEX-4T-1 with thrombin site; GST kept because the protein was loaded on anti-GST probes for BLI; also called SCREAM; ICE1; source: E. coli BL21, purified (glutathione agarose resin); not shown: GST, N-terminal, kept
T1 sequence (looked up): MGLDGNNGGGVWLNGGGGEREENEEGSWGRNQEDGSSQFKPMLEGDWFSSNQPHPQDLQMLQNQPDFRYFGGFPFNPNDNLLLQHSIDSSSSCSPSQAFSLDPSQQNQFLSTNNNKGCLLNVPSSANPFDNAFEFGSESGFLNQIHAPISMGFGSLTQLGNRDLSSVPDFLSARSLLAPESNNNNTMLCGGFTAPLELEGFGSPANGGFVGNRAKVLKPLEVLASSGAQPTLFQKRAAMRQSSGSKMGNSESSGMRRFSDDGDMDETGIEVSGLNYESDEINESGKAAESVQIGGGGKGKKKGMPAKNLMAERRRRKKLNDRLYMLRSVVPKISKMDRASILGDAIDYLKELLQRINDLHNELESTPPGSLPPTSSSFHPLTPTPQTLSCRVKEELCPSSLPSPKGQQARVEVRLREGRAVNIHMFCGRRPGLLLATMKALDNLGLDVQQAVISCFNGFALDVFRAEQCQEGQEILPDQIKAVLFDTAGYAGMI

GST-fused SCRM (1-494) [2] = target: T1, GST-fused SCRM (1-494); assay: BLI; Octet Red96; anti-GST probes loaded with 500 nM GST-SCRM or GST-SCRMΔC; SPCH/MUTE/FAMA as analyte at 200-3.12 nM; 30 °C; 1x PBS, 0.02% Tween 20; no DNA; 1:1 model for kon, koff and KD, steady-state analysis for KD (SS); details: both partners purified
GST-fused SCRM (1-494) [3] = target: T1, GST-fused SCRM (1-494); assay: BLI; as a1, samples incubated 30 min with a 1:4 molar ratio of the TMM promoter fragment containing the E-box; analyte 200-3.125 nM or 1000-25 nM; details: both partners purified
[4] = target: GST-fused SCRMΔC (1-404) (Arabidopsis thaliana) (UniProt Q9LSE2); assay: as above
GST-fused SCRM (1-494) [5] = target: T1, GST-fused SCRM (1-494); assay: BLI; as a1, samples incubated 30 min with a 1:4 molar ratio of the TMM promoter fragment containing a mutant E-box (control); analyte 200-3.125 nM or 1000-25 nM; details: both partners purified
[6] = target: GST-fused SCRMΔC (1-404) (Arabidopsis thaliana) (UniProt Q9LSE2); assay: BLI; as a1, samples incubated 30 min with a 1:4 molar ratio of the synthetic E-box repeat fragment; analyte 200-3.125 nM or 1000-25 nM
GST-fused SCRMΔC (1-404) [7] = target: T2, GST-fused SCRMΔC (1-404) (Arabidopsis thaliana, UniProt Q9LSE2 1-404); assay: as above; details: both partners purified
T2 construct: SCREAM (SCRM, ICE1), Arabidopsis thaliana, At3G26744, residues 1-404 (lacks the C-terminal ACTL domain); pGEX-4T-1; GST kept because the protein was loaded on anti-GST probes for BLI; also called SCRM1ΔC; source: E. coli BL21, purified (glutathione agarose resin); not shown: GST, N-terminal, kept
T2 sequence (looked up): B4 chain

GST-fused SCRMΔC (1-404) [8] = target: T2, GST-fused SCRMΔC (1-404); assay: BLI; Octet Red96; anti-GST probes loaded with 500 nM GST-SCRM or GST-SCRMΔC; SPCH/MUTE/FAMA as analyte at 200-3.12 nM; 30 °C; 1x PBS, 0.02% Tween 20; no DNA; 1:1 model for kon, koff and KD, steady-state analysis for KD (SS); details: both partners purified
GST-fused SCRMΔC (1-404) [9] = target: T2, GST-fused SCRMΔC (1-404); assay: BLI; as a1, samples incubated 30 min with a 1:4 molar ratio of the TMM promoter fragment containing the E-box; analyte 200-3.125 nM or 1000-25 nM; details: both partners purified
[10] = target: B4; assay: ITC; Malvern PEAQ-ITC; 40 µM SCRM/SCRMΔC injected into 4 µM SPCH/MUTE/FAMA; PBS, pH 7.2 (Table S1; methods: pH 7.4); 25 °C; single binding site model; means of two experiments; details: both partners purified
GST-fused SCRMΔC (1-404) [11] = target: T2, GST-fused SCRMΔC (1-404); assay: BLI; as a1, samples incubated 30 min with a 1:4 molar ratio of the TMM promoter fragment containing a mutant E-box (control); analyte 200-3.125 nM or 1000-25 nM; details: both partners purified
SPCH (ΔNSPCH, 98-364) = target: B2; assay: ITC; Malvern PEAQ-ITC; 40 µM SCRM/SCRMΔC injected into 4 µM SPCH/MUTE/FAMA; PBS, pH 7.2 (Table S1; methods: pH 7.4); 25 °C; single binding site model; means of two experiments; details: both partners purified
FAMA (ΔNFAMA) = target: B3; assay: as above; details: both partners purified

## B1
GST-fused SCRM (1-494) [1]
  Kd: 5.1 ± 0.3 nM
  koff: 0.000285 s⁻¹
  kon: 56200 M⁻¹ s⁻¹
GST-fused SCRM (1-494) [2]
  Kd: 6.1 ± 0.5 nM
  koff: 0.000147 s⁻¹
  kon: 24200 M⁻¹ s⁻¹
GST-fused SCRM (1-494) [3]
  Kd: 7.3 ± 0.2 nM
  koff: 0.000286 s⁻¹
  kon: 39200 M⁻¹ s⁻¹
[4]
  Kd: 565 nM
  koff: 0.0016 s⁻¹
  kon: 2850 M⁻¹ s⁻¹
GST-fused SCRM (1-494) [5]
  Kd: 11.1 ± 0.8 nM
  koff: 0.00023 s⁻¹
  kon: 20800 M⁻¹ s⁻¹
[6]
  Kd: 545 nM
  koff: 0.0017 s⁻¹
  kon: 3100 M⁻¹ s⁻¹

## B2
GST-fused SCRM (1-494) [1]
  Kd: 7.2 ± 0.4 nM
  koff: 0.000354 s⁻¹
  kon: 49200 M⁻¹ s⁻¹
GST-fused SCRMΔC (1-404) [7]
  Kd: 38.1 ± 1.9 nM
  koff: 0.000184 s⁻¹
  kon: 4850 M⁻¹ s⁻¹
GST-fused SCRM (1-494) [2]
  Kd: 5.8 ± 0.5 nM
  koff: 0.000111 s⁻¹
  kon: 19200 M⁻¹ s⁻¹
GST-fused SCRMΔC (1-404) [8]
  Kd: 59.1 ± 1.3 nM
  koff: 0.00012 s⁻¹
  kon: 2050 M⁻¹ s⁻¹
GST-fused SCRM (1-494) [3]
  Kd: 3.9 ± 0.3 nM
  koff: 0.000153 s⁻¹
  kon: 39200 M⁻¹ s⁻¹
GST-fused SCRMΔC (1-404) [9]
  Kd: 49 ± 1.3 nM
  koff: 0.000208 s⁻¹
  kon: 4250 M⁻¹ s⁻¹
[10]
  Kd: 61.1 ± 4.2 nM
GST-fused SCRM (1-494) [5]
  Kd: 6.8 ± 0.5 nM
  koff: 0.000144 s⁻¹
  kon: 21200 M⁻¹ s⁻¹
GST-fused SCRMΔC (1-404) [11]
  Kd: 78.2 ± 1.2 nM
  koff: 0.000183 s⁻¹
  kon: 2350 M⁻¹ s⁻¹

## B3
GST-fused SCRM (1-494) [1]
  Kd: 8.5 ± 0.7 nM
  koff: 0.000367 s⁻¹
  kon: 43200 M⁻¹ s⁻¹
GST-fused SCRMΔC (1-404) [7]
  Kd: 59.1 ± 1.3 nM
  koff: 0.00023 s⁻¹
  kon: 3910 M⁻¹ s⁻¹
GST-fused SCRM (1-494) [2]
  Kd: 7.2 ± 0.5 nM
  koff: 0.000159 s⁻¹
  kon: 22200 M⁻¹ s⁻¹
GST-fused SCRMΔC (1-404) [8]
  Kd: 55.1 ± 1.3 nM
  koff: 0.00016 s⁻¹
  kon: 2910 M⁻¹ s⁻¹
GST-fused SCRM (1-494) [3]
  Kd: 9.2 ± 0.3 nM
  koff: 0.000395 s⁻¹
  kon: 43200 M⁻¹ s⁻¹
GST-fused SCRMΔC (1-404) [9]
  Kd: 68.3 ± 1.4 nM
  koff: 0.000263 s⁻¹
  kon: 3910 M⁻¹ s⁻¹
[10]
  Kd: 68.1 ± 5.2 nM
GST-fused SCRM (1-494) [5]
  Kd: 15.5 ± 0.6 nM
  koff: 0.000282 s⁻¹
  kon: 18200 M⁻¹ s⁻¹
GST-fused SCRMΔC (1-404) [11]
  Kd: 85 ± 1.8 nM
  koff: 0.000221 s⁻¹
  kon: 2610 M⁻¹ s⁻¹

## B4
SPCH (ΔNSPCH, 98-364)
  stoichiometry N: 0.95
FAMA (ΔNFAMA)
  stoichiometry N: 0.96
